One assay deals with T1, GST-PUB11-ARM (Arabidopsis thaliana).
T1 chain: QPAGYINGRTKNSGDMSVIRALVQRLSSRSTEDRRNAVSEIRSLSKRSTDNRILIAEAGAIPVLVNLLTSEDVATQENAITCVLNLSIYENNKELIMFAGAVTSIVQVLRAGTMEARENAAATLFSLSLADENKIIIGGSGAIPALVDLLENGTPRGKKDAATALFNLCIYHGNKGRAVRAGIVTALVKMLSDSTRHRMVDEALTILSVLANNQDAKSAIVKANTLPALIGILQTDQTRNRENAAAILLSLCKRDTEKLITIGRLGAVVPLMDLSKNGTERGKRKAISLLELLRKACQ
The assay can be described thus: MST.

For another assay, the target named is GST. Put plainly: MST.

A value given as a limit tells only on which side of the number the result lay.

B1: AtHPPD-F428Y (protein)
chain: MGHQNAAVSENQNHDDGAASSPGFKLVGFSKFVRKNPKSDKFKVKRFHHIEFWCGDATNVARRFSWGLGMRFSAKSDLSTGNMVHASYLLTSGDLRFLFTAPYSPSLSAGEIKPTTTASIPSFDHGSCRSFFSSHGLGVRAVAIEVEDAESAFSISVANGAIPSSPPIVLNEAVTIAEVKLYGDVVLRYVSYKAEDTEKSEFLPGFERVEDASSFPLDYGIRRLDHAVGNVPELGPALTYVAGFTGFHQFAEFTADDVGTAESGLNSAVLASNDEMVLLPINEPVHGTKRKSQIQTYLEHNEGAGLQHLALMSEDIFRTLREMRKRSSIGGFDFMPSPPPTYYQNLKKRVGDVLSDDQIKECEELGILVDRDDQGTLLQIFTKPLGDRPTIFIEIIQRVGCMMKDEEGKAYQSGGCGGFGKGNFSELYKSIEEYEKTLEAKQLVG
modifications: GST carrier omitted. Limits not printed: ARM region taken as everything after the U-box (240-314) to the C-terminus
For the molecule B1, the Kd (commonly the constant that tells how readily two partners part at equilibrium) in the assay with GST-PUB11-ARM turned out to be 1.3 µM.

B2: AtHPPD-F215Y (protein)
chain: MGHQNAAVSENQNHDDGAASSPGFKLVGFSKFVRKNPKSDKFKVKRFHHIEFWCGDATNVARRFSWGLGMRFSAKSDLSTGNMVHASYLLTSGDLRFLFTAPYSPSLSAGEIKPTTTASIPSFDHGSCRSFFSSHGLGVRAVAIEVEDAESAFSISVANGAIPSSPPIVLNEAVTIAEVKLYGDVVLRYVSYKAEDTEKSEFLPGFERVEDASSYPLDYGIRRLDHAVGNVPELGPALTYVAGFTGFHQFAEFTADDVGTAESGLNSAVLASNDEMVLLPINEPVHGTKRKSQIQTYLEHNEGAGLQHLALMSEDIFRTLREMRKRSSIGGFDFMPSPPPTYYQNLKKRVGDVLSDDQIKECEELGILVDRDDQGTLLQIFTKPLGDRPTIFIEIIQRVGCMMKDEEGKAYQSGGCGGFGKGNFSELFKSIEEYEKTLEAKQLVG
modifications: GST carrier omitted. Limits not printed: ARM region taken as everything after the U-box (240-314) to the C-terminus
On to B2, for which the Kd in the assay with GST-PUB11-ARM worked out at 1.59 µM.

B3: His-AtHPPD (Arabidopsis thaliana 4-hydroxyphenylpyruvate dioxygenase) (enzyme)
chain: MGHQNAAVSENQNHDDGAASSPGFKLVGFSKFVRKNPKSDKFKVKRFHHIEFWCGDATNVARRFSWGLGMRFSAKSDLSTGNMVHASYLLTSGDLRFLFTAPYSPSLSAGEIKPTTTASIPSFDHGSCRSFFSSHGLGVRAVAIEVEDAESAFSISVANGAIPSSPPIVLNEAVTIAEVKLYGDVVLRYVSYKAEDTEKSEFLPGFERVEDASSFPLDYGIRRLDHAVGNVPELGPALTYVAGFTGFHQFAEFTADDVGTAESGLNSAVLASNDEMVLLPINEPVHGTKRKSQIQTYLEHNEGAGLQHLALMSEDIFRTLREMRKRSSIGGFDFMPSPPPTYYQNLKKRVGDVLSDDQIKECEELGILVDRDDQGTLLQIFTKPLGDRPTIFIEIIQRVGCMMKDEEGKAYQSGGCGGFGKGNFSELFKSIEEYEKTLEAKQLVG
B3: the Kd in the assay with GST is > 1000 µM.

B4: AtHPPD-F419Y (protein)
chain: MGHQNAAVSENQNHDDGAASSPGFKLVGFSKFVRKNPKSDKFKVKRFHHIEFWCGDATNVARRFSWGLGMRFSAKSDLSTGNMVHASYLLTSGDLRFLFTAPYSPSLSAGEIKPTTTASIPSFDHGSCRSFFSSHGLGVRAVAIEVEDAESAFSISVANGAIPSSPPIVLNEAVTIAEVKLYGDVVLRYVSYKAEDTEKSEFLPGFERVEDASSFPLDYGIRRLDHAVGNVPELGPALTYVAGFTGFHQFAEFTADDVGTAESGLNSAVLASNDEMVLLPINEPVHGTKRKSQIQTYLEHNEGAGLQHLALMSEDIFRTLREMRKRSSIGGFDFMPSPPPTYYQNLKKRVGDVLSDDQIKECEELGILVDRDDQGTLLQIFTKPLGDRPTIFIEIIQRVGCMMKDEEGKAYQSGGCGGYGKGNFSELFKSIEEYEKTLEAKQLVG
modifications: GST carrier omitted. Limits not printed: ARM region taken as everything after the U-box (240-314) to the C-terminus
On to B4, for which binding with GST-PUB11-ARM was put at a Kd of 46.7 µM.

B5: AtHPPD-F131Y (protein)
chain: MGHQNAAVSENQNHDDGAASSPGFKLVGFSKFVRKNPKSDKFKVKRFHHIEFWCGDATNVARRFSWGLGMRFSAKSDLSTGNMVHASYLLTSGDLRFLFTAPYSPSLSAGEIKPTTTASIPSFDHGSCRSYFSSHGLGVRAVAIEVEDAESAFSISVANGAIPSSPPIVLNEAVTIAEVKLYGDVVLRYVSYKAEDTEKSEFLPGFERVEDASSFPLDYGIRRLDHAVGNVPELGPALTYVAGFTGFHQFAEFTADDVGTAESGLNSAVLASNDEMVLLPINEPVHGTKRKSQIQTYLEHNEGAGLQHLALMSEDIFRTLREMRKRSSIGGFDFMPSPPPTYYQNLKKRVGDVLSDDQIKECEELGILVDRDDQGTLLQIFTKPLGDRPTIFIEIIQRVGCMMKDEEGKAYQSGGCGGFGKGNFSELFKSIEEYEKTLEAKQLVG
modifications: GST carrier omitted. Limits not printed: ARM region taken as everything after the U-box (240-314) to the C-terminus
In turn, B5 showed a Kd with GST-PUB11-ARM of 1.26 µM.

B6: AtHPPD-F64Y (protein)
chain: MGHQNAAVSENQNHDDGAASSPGFKLVGFSKFVRKNPKSDKFKVKRFHHIEFWCGDATNVARRYSWGLGMRFSAKSDLSTGNMVHASYLLTSGDLRFLFTAPYSPSLSAGEIKPTTTASIPSFDHGSCRSFFSSHGLGVRAVAIEVEDAESAFSISVANGAIPSSPPIVLNEAVTIAEVKLYGDVVLRYVSYKAEDTEKSEFLPGFERVEDASSFPLDYGIRRLDHAVGNVPELGPALTYVAGFTGFHQFAEFTADDVGTAESGLNSAVLASNDEMVLLPINEPVHGTKRKSQIQTYLEHNEGAGLQHLALMSEDIFRTLREMRKRSSIGGFDFMPSPPPTYYQNLKKRVGDVLSDDQIKECEELGILVDRDDQGTLLQIFTKPLGDRPTIFIEIIQRVGCMMKDEEGKAYQSGGCGGFGKGNFSELFKSIEEYEKTLEAKQLVG
modifications: GST carrier omitted. Limits not printed: ARM region taken as everything after the U-box (240-314) to the C-terminus
For the molecule B6, the Kd in the assay with GST-PUB11-ARM was 0.37 µM.

B7: AtHPPD-F424Y (protein)
chain: MGHQNAAVSENQNHDDGAASSPGFKLVGFSKFVRKNPKSDKFKVKRFHHIEFWCGDATNVARRFSWGLGMRFSAKSDLSTGNMVHASYLLTSGDLRFLFTAPYSPSLSAGEIKPTTTASIPSFDHGSCRSFFSSHGLGVRAVAIEVEDAESAFSISVANGAIPSSPPIVLNEAVTIAEVKLYGDVVLRYVSYKAEDTEKSEFLPGFERVEDASSFPLDYGIRRLDHAVGNVPELGPALTYVAGFTGFHQFAEFTADDVGTAESGLNSAVLASNDEMVLLPINEPVHGTKRKSQIQTYLEHNEGAGLQHLALMSEDIFRTLREMRKRSSIGGFDFMPSPPPTYYQNLKKRVGDVLSDDQIKECEELGILVDRDDQGTLLQIFTKPLGDRPTIFIEIIQRVGCMMKDEEGKAYQSGGCGGFGKGNYSELFKSIEEYEKTLEAKQLVG
modifications: GST carrier omitted. Limits not printed: ARM region taken as everything after the U-box (240-314) to the C-terminus
Molecule B7 showed a Kd with GST-PUB11-ARM of 1.75 µM.

B8: AtHPPD-F132Y (protein)
chain: MGHQNAAVSENQNHDDGAASSPGFKLVGFSKFVRKNPKSDKFKVKRFHHIEFWCGDATNVARRFSWGLGMRFSAKSDLSTGNMVHASYLLTSGDLRFLFTAPYSPSLSAGEIKPTTTASIPSFDHGSCRSFYSSHGLGVRAVAIEVEDAESAFSISVANGAIPSSPPIVLNEAVTIAEVKLYGDVVLRYVSYKAEDTEKSEFLPGFERVEDASSFPLDYGIRRLDHAVGNVPELGPALTYVAGFTGFHQFAEFTADDVGTAESGLNSAVLASNDEMVLLPINEPVHGTKRKSQIQTYLEHNEGAGLQHLALMSEDIFRTLREMRKRSSIGGFDFMPSPPPTYYQNLKKRVGDVLSDDQIKECEELGILVDRDDQGTLLQIFTKPLGDRPTIFIEIIQRVGCMMKDEEGKAYQSGGCGGFGKGNFSELFKSIEEYEKTLEAKQLVG
modifications: GST carrier omitted. Limits not printed: ARM region taken as everything after the U-box (240-314) to the C-terminus
In the assay with GST-PUB11-ARM, B8 yielded a Kd of 2.38 µM.

B9: AtHPPD-F202Y (protein)
chain: MGHQNAAVSENQNHDDGAASSPGFKLVGFSKFVRKNPKSDKFKVKRFHHIEFWCGDATNVARRFSWGLGMRFSAKSDLSTGNMVHASYLLTSGDLRFLFTAPYSPSLSAGEIKPTTTASIPSFDHGSCRSFFSSHGLGVRAVAIEVEDAESAFSISVANGAIPSSPPIVLNEAVTIAEVKLYGDVVLRYVSYKAEDTEKSEYLPGFERVEDASSFPLDYGIRRLDHAVGNVPELGPALTYVAGFTGFHQFAEFTADDVGTAESGLNSAVLASNDEMVLLPINEPVHGTKRKSQIQTYLEHNEGAGLQHLALMSEDIFRTLREMRKRSSIGGFDFMPSPPPTYYQNLKKRVGDVLSDDQIKECEELGILVDRDDQGTLLQIFTKPLGDRPTIFIEIIQRVGCMMKDEEGKAYQSGGCGGFGKGNFSELFKSIEEYEKTLEAKQLVG
modifications: GST carrier omitted. Limits not printed: ARM region taken as everything after the U-box (240-314) to the C-terminus
B9: the Kd with GST-PUB11-ARM worked out at 1.65 µM.

B10: AtHPPD-F29Y (protein)
chain: MGHQNAAVSENQNHDDGAASSPGFKLVGYSKFVRKNPKSDKFKVKRFHHIEFWCGDATNVARRFSWGLGMRFSAKSDLSTGNMVHASYLLTSGDLRFLFTAPYSPSLSAGEIKPTTTASIPSFDHGSCRSFFSSHGLGVRAVAIEVEDAESAFSISVANGAIPSSPPIVLNEAVTIAEVKLYGDVVLRYVSYKAEDTEKSEFLPGFERVEDASSFPLDYGIRRLDHAVGNVPELGPALTYVAGFTGFHQFAEFTADDVGTAESGLNSAVLASNDEMVLLPINEPVHGTKRKSQIQTYLEHNEGAGLQHLALMSEDIFRTLREMRKRSSIGGFDFMPSPPPTYYQNLKKRVGDVLSDDQIKECEELGILVDRDDQGTLLQIFTKPLGDRPTIFIEIIQRVGCMMKDEEGKAYQSGGCGGFGKGNFSELFKSIEEYEKTLEAKQLVG
modifications: GST carrier omitted. Limits not printed: ARM region taken as everything after the U-box (240-314) to the C-terminus
For the molecule B10, the Kd with GST-PUB11-ARM turned out to be 1.08 µM.

B11: AtHPPD-F52Y (antibody)
chain: MGHQNAAVSENQNHDDGAASSPGFKLVGFSKFVRKNPKSDKFKVKRFHHIEYWCGDATNVARRFSWGLGMRFSAKSDLSTGNMVHASYLLTSGDLRFLFTAPYSPSLSAGEIKPTTTASIPSFDHGSCRSFFSSHGLGVRAVAIEVEDAESAFSISVANGAIPSSPPIVLNEAVTIAEVKLYGDVVLRYVSYKAEDTEKSEFLPGFERVEDASSFPLDYGIRRLDHAVGNVPELGPALTYVAGFTGFHQFAEFTADDVGTAESGLNSAVLASNDEMVLLPINEPVHGTKRKSQIQTYLEHNEGAGLQHLALMSEDIFRTLREMRKRSSIGGFDFMPSPPPTYYQNLKKRVGDVLSDDQIKECEELGILVDRDDQGTLLQIFTKPLGDRPTIFIEIIQRVGCMMKDEEGKAYQSGGCGGFGKGNFSELFKSIEEYEKTLEAKQLVG
modifications: GST carrier omitted. Limits not printed: ARM region taken as everything after the U-box (240-314) to the C-terminus
Molecule B11 had a Kd with GST-PUB11-ARM of 1.6 µM.

B12: AtHPPD-F47Y (protein)
chain: MGHQNAAVSENQNHDDGAASSPGFKLVGFSKFVRKNPKSDKFKVKRYHHIEFWCGDATNVARRFSWGLGMRFSAKSDLSTGNMVHASYLLTSGDLRFLFTAPYSPSLSAGEIKPTTTASIPSFDHGSCRSFFSSHGLGVRAVAIEVEDAESAFSISVANGAIPSSPPIVLNEAVTIAEVKLYGDVVLRYVSYKAEDTEKSEFLPGFERVEDASSFPLDYGIRRLDHAVGNVPELGPALTYVAGFTGFHQFAEFTADDVGTAESGLNSAVLASNDEMVLLPINEPVHGTKRKSQIQTYLEHNEGAGLQHLALMSEDIFRTLREMRKRSSIGGFDFMPSPPPTYYQNLKKRVGDVLSDDQIKECEELGILVDRDDQGTLLQIFTKPLGDRPTIFIEIIQRVGCMMKDEEGKAYQSGGCGGFGKGNFSELFKSIEEYEKTLEAKQLVG
modifications: GST carrier omitted. Limits not printed: ARM region taken as everything after the U-box (240-314) to the C-terminus
As for B12, the Kd in the assay with GST-PUB11-ARM was determined as 0.23 µM.

The values above are taken from paper PMC12785156 (2025).
